B1: D506A:D571A TSP2 (enzyme, UniProt G3M190 1-921, looked up)
chain: MTRNVEELFGGVITAPHQIPFTYKSNVGGETFLSLPFYPVTGVVTINGGMQVPLDNFEIEGNTLNLGRALSKGDVVYCLFDKILSPEDTAKGIRIYKFQAVGGETEFTPDFTSYGVQSLYIGGEYKTPEIEYSYDSTTGKVSLQTALSAGVWVVAEMSVKQPNISPAFDRSIQEIARSANVKDSEVIVSTDTISLLDGKKVVYDIATQTSYGLPTIPDGSVISSVSAGKLNYNPGDVQVDLLPLEDSFINVINTLGRNDGAKYIGECHSVADLRNTEPTMDGQRIILKQHTAGTLLGGGVFRALIDGTGKTDNNGTVIKTVGGAAWLRVNADRVNPFMFGALGGSNDDTIPVQSCVDSGKATQLTDAHYVSNIQLKYNTSSIYGSGLHYSRLHQLPSATGNCITIKDTCSLIVLDAFGVYGTGAQQGTSFTAGTTGIYVETPSGLSADYPFHTTADPRRDLCISKVHIAGFDEYGLNIDSGNFSVTTDSLLVNHINQVGVRCATTAWTWTNIQVNTCGKQCLVLDGCGNGRIIGGKFIWANWQPYGTVGQFPGITINNSQNMVINGIEVQACGGNGIEISESYSISMNGLNTNRNGINANNTFYNIVFNKSDAVINGFVGLNYAANSGSGANSSAGNFQFLSNDCSVTINGVVETGYMGINFIGDNNIINPTNSDLSINGLVNYSKTGLQTMNETPTFDGVSTTPVYVSVPSSVGQVNGLRLSQANKDKLLYSRTAGPEGITMAAVIVPTISGAEVFNFMAIGSGFSDTSNSLHLQLVIDASGKQTIALLLGGDGTTQILSGDLPNDLKLQSGVPYHIAIGAKPGYFWWSILNIQTGKRIRRSFRGAYLAVPFNSIFGLTSSLTFFSDSNAGGDACSGVGAKVYVGMFSSENDYVASRYYNLINPVDPTKLISYRILDSSI
notes: Made by Q5 site-directed mutagenesis of the TSP2 plasmid; also called TSP2 D506A:D571A double mutant; source: E. coli BL21(DE3), purified similar to wild type TSPs
B2: D506N:E568Q:D571N TSP2 (enzyme, UniProt G3M190 1-921, looked up)
chain: MTRNVEELFGGVITAPHQIPFTYKSNVGGETFLSLPFYPVTGVVTINGGMQVPLDNFEIEGNTLNLGRALSKGDVVYCLFDKILSPEDTAKGIRIYKFQAVGGETEFTPDFTSYGVQSLYIGGEYKTPEIEYSYDSTTGKVSLQTALSAGVWVVAEMSVKQPNISPAFDRSIQEIARSANVKDSEVIVSTDTISLLDGKKVVYDIATQTSYGLPTIPDGSVISSVSAGKLNYNPGDVQVDLLPLEDSFINVINTLGRNDGAKYIGECHSVADLRNTEPTMDGQRIILKQHTAGTLLGGGVFRALIDGTGKTDNNGTVIKTVGGAAWLRVNADRVNPFMFGALGGSNDDTIPVQSCVDSGKATQLTDAHYVSNIQLKYNTSSIYGSGLHYSRLHQLPSATGNCITIKDTCSLIVLDAFGVYGTGAQQGTSFTAGTTGIYVETPSGLSADYPFHTTADPRRDLCISKVHIAGFDEYGLNIDSGNFSVTTDSLLVNHINQVGVRCATTNWTWTNIQVNTCGKQCLVLDGCGNGRIIGGKFIWANWQPYGTVGQFPGITINNSQNMVINGIQVQNCGGNGIEISESYSISMNGLNTNRNGINANNTFYNIVFNKSDAVINGFVGLNYAANSGSGANSSAGNFQFLSNDCSVTINGVVETGYMGINFIGDNNIINPTNSDLSINGLVNYSKTGLQTMNETPTFDGVSTTPVYVSVPSSVGQVNGLRLSQANKDKLLYSRTAGPEGITMAAVIVPTISGAEVFNFMAIGSGFSDTSNSLHLQLVIDASGKQTIALLLGGDGTTQILSGDLPNDLKLQSGVPYHIAIGAKPGYFWWSILNIQTGKRIRRSFRGAYLAVPFNSIFGLTSSLTFFSDSNAGGDACSGVGAKVYVGMFSSENDYVASRYYNLINPVDPTKLISYRILDSSI
notes: Made by Q5 site-directed mutagenesis of the TSP2 plasmid; source: E. coli BL21(DE3), purified similar to wild type TSPs
B3: D506N:E568A:D571N TSP2 (enzyme, UniProt G3M190 1-921, looked up)
chain: MTRNVEELFGGVITAPHQIPFTYKSNVGGETFLSLPFYPVTGVVTINGGMQVPLDNFEIEGNTLNLGRALSKGDVVYCLFDKILSPEDTAKGIRIYKFQAVGGETEFTPDFTSYGVQSLYIGGEYKTPEIEYSYDSTTGKVSLQTALSAGVWVVAEMSVKQPNISPAFDRSIQEIARSANVKDSEVIVSTDTISLLDGKKVVYDIATQTSYGLPTIPDGSVISSVSAGKLNYNPGDVQVDLLPLEDSFINVINTLGRNDGAKYIGECHSVADLRNTEPTMDGQRIILKQHTAGTLLGGGVFRALIDGTGKTDNNGTVIKTVGGAAWLRVNADRVNPFMFGALGGSNDDTIPVQSCVDSGKATQLTDAHYVSNIQLKYNTSSIYGSGLHYSRLHQLPSATGNCITIKDTCSLIVLDAFGVYGTGAQQGTSFTAGTTGIYVETPSGLSADYPFHTTADPRRDLCISKVHIAGFDEYGLNIDSGNFSVTTDSLLVNHINQVGVRCATTNWTWTNIQVNTCGKQCLVLDGCGNGRIIGGKFIWANWQPYGTVGQFPGITINNSQNMVINGIAVQNCGGNGIEISESYSISMNGLNTNRNGINANNTFYNIVFNKSDAVINGFVGLNYAANSGSGANSSAGNFQFLSNDCSVTINGVVETGYMGINFIGDNNIINPTNSDLSINGLVNYSKTGLQTMNETPTFDGVSTTPVYVSVPSSVGQVNGLRLSQANKDKLLYSRTAGPEGITMAAVIVPTISGAEVFNFMAIGSGFSDTSNSLHLQLVIDASGKQTIALLLGGDGTTQILSGDLPNDLKLQSGVPYHIAIGAKPGYFWWSILNIQTGKRIRRSFRGAYLAVPFNSIFGLTSSLTFFSDSNAGGDACSGVGAKVYVGMFSSENDYVASRYYNLINPVDPTKLISYRILDSSI
notes: as for B2
B4: D506N:D571A TSP2 (enzyme, UniProt G3M190 1-921, looked up)
chain: MTRNVEELFGGVITAPHQIPFTYKSNVGGETFLSLPFYPVTGVVTINGGMQVPLDNFEIEGNTLNLGRALSKGDVVYCLFDKILSPEDTAKGIRIYKFQAVGGETEFTPDFTSYGVQSLYIGGEYKTPEIEYSYDSTTGKVSLQTALSAGVWVVAEMSVKQPNISPAFDRSIQEIARSANVKDSEVIVSTDTISLLDGKKVVYDIATQTSYGLPTIPDGSVISSVSAGKLNYNPGDVQVDLLPLEDSFINVINTLGRNDGAKYIGECHSVADLRNTEPTMDGQRIILKQHTAGTLLGGGVFRALIDGTGKTDNNGTVIKTVGGAAWLRVNADRVNPFMFGALGGSNDDTIPVQSCVDSGKATQLTDAHYVSNIQLKYNTSSIYGSGLHYSRLHQLPSATGNCITIKDTCSLIVLDAFGVYGTGAQQGTSFTAGTTGIYVETPSGLSADYPFHTTADPRRDLCISKVHIAGFDEYGLNIDSGNFSVTTDSLLVNHINQVGVRCATTNWTWTNIQVNTCGKQCLVLDGCGNGRIIGGKFIWANWQPYGTVGQFPGITINNSQNMVINGIEVQACGGNGIEISESYSISMNGLNTNRNGINANNTFYNIVFNKSDAVINGFVGLNYAANSGSGANSSAGNFQFLSNDCSVTINGVVETGYMGINFIGDNNIINPTNSDLSINGLVNYSKTGLQTMNETPTFDGVSTTPVYVSVPSSVGQVNGLRLSQANKDKLLYSRTAGPEGITMAAVIVPTISGAEVFNFMAIGSGFSDTSNSLHLQLVIDASGKQTIALLLGGDGTTQILSGDLPNDLKLQSGVPYHIAIGAKPGYFWWSILNIQTGKRIRRSFRGAYLAVPFNSIFGLTSSLTFFSDSNAGGDACSGVGAKVYVGMFSSENDYVASRYYNLINPVDPTKLISYRILDSSI
notes: as for B2
B5: D506A:D571N TSP2 (enzyme, UniProt G3M190 1-921, looked up)
chain: MTRNVEELFGGVITAPHQIPFTYKSNVGGETFLSLPFYPVTGVVTINGGMQVPLDNFEIEGNTLNLGRALSKGDVVYCLFDKILSPEDTAKGIRIYKFQAVGGETEFTPDFTSYGVQSLYIGGEYKTPEIEYSYDSTTGKVSLQTALSAGVWVVAEMSVKQPNISPAFDRSIQEIARSANVKDSEVIVSTDTISLLDGKKVVYDIATQTSYGLPTIPDGSVISSVSAGKLNYNPGDVQVDLLPLEDSFINVINTLGRNDGAKYIGECHSVADLRNTEPTMDGQRIILKQHTAGTLLGGGVFRALIDGTGKTDNNGTVIKTVGGAAWLRVNADRVNPFMFGALGGSNDDTIPVQSCVDSGKATQLTDAHYVSNIQLKYNTSSIYGSGLHYSRLHQLPSATGNCITIKDTCSLIVLDAFGVYGTGAQQGTSFTAGTTGIYVETPSGLSADYPFHTTADPRRDLCISKVHIAGFDEYGLNIDSGNFSVTTDSLLVNHINQVGVRCATTAWTWTNIQVNTCGKQCLVLDGCGNGRIIGGKFIWANWQPYGTVGQFPGITINNSQNMVINGIEVQNCGGNGIEISESYSISMNGLNTNRNGINANNTFYNIVFNKSDAVINGFVGLNYAANSGSGANSSAGNFQFLSNDCSVTINGVVETGYMGINFIGDNNIINPTNSDLSINGLVNYSKTGLQTMNETPTFDGVSTTPVYVSVPSSVGQVNGLRLSQANKDKLLYSRTAGPEGITMAAVIVPTISGAEVFNFMAIGSGFSDTSNSLHLQLVIDASGKQTIALLLGGDGTTQILSGDLPNDLKLQSGVPYHIAIGAKPGYFWWSILNIQTGKRIRRSFRGAYLAVPFNSIFGLTSSLTFFSDSNAGGDACSGVGAKVYVGMFSSENDYVASRYYNLINPVDPTKLISYRILDSSI
notes: as for B2
B6: D506N:D571N TSP2 (enzyme, UniProt G3M190 1-921, looked up)
chain: MTRNVEELFGGVITAPHQIPFTYKSNVGGETFLSLPFYPVTGVVTINGGMQVPLDNFEIEGNTLNLGRALSKGDVVYCLFDKILSPEDTAKGIRIYKFQAVGGETEFTPDFTSYGVQSLYIGGEYKTPEIEYSYDSTTGKVSLQTALSAGVWVVAEMSVKQPNISPAFDRSIQEIARSANVKDSEVIVSTDTISLLDGKKVVYDIATQTSYGLPTIPDGSVISSVSAGKLNYNPGDVQVDLLPLEDSFINVINTLGRNDGAKYIGECHSVADLRNTEPTMDGQRIILKQHTAGTLLGGGVFRALIDGTGKTDNNGTVIKTVGGAAWLRVNADRVNPFMFGALGGSNDDTIPVQSCVDSGKATQLTDAHYVSNIQLKYNTSSIYGSGLHYSRLHQLPSATGNCITIKDTCSLIVLDAFGVYGTGAQQGTSFTAGTTGIYVETPSGLSADYPFHTTADPRRDLCISKVHIAGFDEYGLNIDSGNFSVTTDSLLVNHINQVGVRCATTNWTWTNIQVNTCGKQCLVLDGCGNGRIIGGKFIWANWQPYGTVGQFPGITINNSQNMVINGIEVQNCGGNGIEISESYSISMNGLNTNRNGINANNTFYNIVFNKSDAVINGFVGLNYAANSGSGANSSAGNFQFLSNDCSVTINGVVETGYMGINFIGDNNIINPTNSDLSINGLVNYSKTGLQTMNETPTFDGVSTTPVYVSVPSSVGQVNGLRLSQANKDKLLYSRTAGPEGITMAAVIVPTISGAEVFNFMAIGSGFSDTSNSLHLQLVIDASGKQTIALLLGGDGTTQILSGDLPNDLKLQSGVPYHIAIGAKPGYFWWSILNIQTGKRIRRSFRGAYLAVPFNSIFGLTSSLTFFSDSNAGGDACSGVGAKVYVGMFSSENDYVASRYYNLINPVDPTKLISYRILDSSI
notes: Made by Q5 site-directed mutagenesis of the TSP2 plasmid; also called TSP2 D506N:D571N double mutant; TSP2 asparagine double mutant; source: E. coli BL21(DE3), purified similar to wild type TSPs

Target: the molecule itself
Assay: not stated; purified TSP2 site-directed mutants; how the trimeric state was shown is not told
B1 was tested, and the “stoichiometry N” value was 3. B2 was tested, and the “stoichiometry N” value was 3. B3 was tested, and the “stoichiometry N” value was 3. With B4 the “stoichiometry N” value was 3. With B5 the “stoichiometry N” value was 3. With B6 the “stoichiometry N” value was 3.
